Laboratory results taken from publication PMC6888645.

Legend:
[1] = biological target: DD-N-CAP1, human CAP1 helical folded domain with the coiled coil (a.a. 1-29) replaced by the dimerization domain 2L4HC2_23 (human); assay: native MS; 100-300 pmole protein (as monomer), online buffer exchange to 200 mM ammonium acetate pH 6.8, Orbitrap EMR, deconvolution with UniDec
[2] = biological target: DD-N-CAP1, human CAP1 helical folded domain with the coiled coil (a.a. 1-29) replaced by the dimerization domain 2L4HC2_23 (human); assay: AUC; sedimentation velocity (SV-AUC), 50 µM protein, 20 °C, 50,000 rpm, absorbance at 280 nm, 20 mM Tris-HCl pH 8.0, SEDFIT c(S) model; buffer (Tris-HCl vs PBS) and salt did not affect the oligomerization state
[3] = biological target: DD-N-CAP2, human CAP2 helical folded domain with the coiled coil (a.a. 1-29) replaced by the dimerization domain 2L4HC2_23 (human); assay: native MS; 100-300 pmole protein (as monomer), online buffer exchange to 200 mM ammonium acetate pH 6.8, Orbitrap EMR, deconvolution with UniDec
[4] = biological target: DD-N-CAP2, human CAP2 helical folded domain with the coiled coil (a.a. 1-29) replaced by the dimerization domain 2L4HC2_23 (human); assay: AUC; sedimentation velocity (SV-AUC), 50 µM protein, 20 °C, 50,000 rpm, absorbance at 280 nm, 20 mM Tris-HCl pH 8.0, SEDFIT c(S) model; buffer (Tris-HCl vs PBS) and salt did not affect the oligomerization state
[5] = biological target: TD-N-CAP1, human CAP1 helical folded domain with the coiled coil (a.a. 1-29) replaced by the trimerization domain 2L6HC3_6 (human); assay: native MS; 100-300 pmole protein (as monomer), online buffer exchange to 200 mM ammonium acetate pH 6.8, Orbitrap EMR, deconvolution with UniDec
[6] = biological target: TD-N-CAP1, human CAP1 helical folded domain with the coiled coil (a.a. 1-29) replaced by the trimerization domain 2L6HC3_6 (human); assay: AUC; sedimentation velocity (SV-AUC), 50 µM protein, 20 °C, 50,000 rpm, absorbance at 280 nm, 20 mM Tris-HCl pH 8.0, SEDFIT c(S) model; buffer (Tris-HCl vs PBS) and salt did not affect the oligomerization state
[7] = biological target: TD-N-CAP2, human CAP2 helical folded domain with the coiled coil (a.a. 1-29) replaced by the trimerization domain 2L6HC3_6 (human); assay: native MS; 100-300 pmole protein (as monomer), online buffer exchange to 200 mM ammonium acetate pH 6.8, Orbitrap EMR, deconvolution with UniDec
[8] = biological target: TD-N-CAP2, human CAP2 helical folded domain with the coiled coil (a.a. 1-29) replaced by the trimerization domain 2L6HC3_6 (human); assay: AUC; sedimentation velocity (SV-AUC), 50 µM protein, 20 °C, 50,000 rpm, absorbance at 280 nm, 20 mM Tris-HCl pH 8.0, SEDFIT c(S) model; buffer (Tris-HCl vs PBS) and salt did not affect the oligomerization state

DD-N-CAP1, human CAP1 helical folded domain with the coiled coil (a.a. 1-29) replaced by the dimerization domain 2L4HC2_23
stoichiometry N [1]: 2 | stoichiometry N [2]: 2

DD-N-CAP2, human CAP2 helical folded domain with the coiled coil (a.a. 1-29) replaced by the dimerization domain 2L4HC2_23
stoichiometry N [3]: 2 | stoichiometry N [4]: 2

TD-N-CAP1, human CAP1 helical folded domain with the coiled coil (a.a. 1-29) replaced by the trimerization domain 2L6HC3_6
stoichiometry N [5]: 3 | stoichiometry N [6]: 3

TD-N-CAP2, human CAP2 helical folded domain with the coiled coil (a.a. 1-29) replaced by the trimerization domain 2L6HC3_6
stoichiometry N [7]: 3 | stoichiometry N [8]: 3
